This data set deals with the molecule itself. Description: FRET or BRET.

B1: InlB321 K280C mutant, fluorophore-labeled (T variant) (domain or fragment, Listeria monocytogenes, UniProt P0DQD2 36-321, looked up)
chain: ETITVPTPIKQIFSDDAFAETIKDNLKKKSVTDAVTQNELNSIDQIIANNSDIKSVQGIQYLPNVTKLFLNGNKLTDIKPLANLKNLGWLFLDENKVKDLSSLKDLKKLKSLSLEHNGISDINGLVHLPQLESLYLGNNKITDITVLSRLTKLDTLSLEDNQISDIVPLAGLTKLQNLYLSKNHISDLRALAGLKNLDVLELFSQEALNKPINHQSNLVVPNTVKNTDGSLVTPEIISDDGDYECPNVKWHLPEFTNEVSFIFYQPVTIGKAKARFHGRVTQPLKE
modifications: Cy3B (donor) or ATTO 647N (acceptor) attached by maleimide chemistry to the single cysteine at position 280
For the protein B1, the binding result is given as “binds”.
